Data from US20130253037A1 (PURDUE RESEARCH FOUNDATION, published 2013).

Biological target: T1, Aurora A kinase (endogenous, MDA-MB-231 cells) (human, UniProt O14965 1-403)
T1 sequence (looked up): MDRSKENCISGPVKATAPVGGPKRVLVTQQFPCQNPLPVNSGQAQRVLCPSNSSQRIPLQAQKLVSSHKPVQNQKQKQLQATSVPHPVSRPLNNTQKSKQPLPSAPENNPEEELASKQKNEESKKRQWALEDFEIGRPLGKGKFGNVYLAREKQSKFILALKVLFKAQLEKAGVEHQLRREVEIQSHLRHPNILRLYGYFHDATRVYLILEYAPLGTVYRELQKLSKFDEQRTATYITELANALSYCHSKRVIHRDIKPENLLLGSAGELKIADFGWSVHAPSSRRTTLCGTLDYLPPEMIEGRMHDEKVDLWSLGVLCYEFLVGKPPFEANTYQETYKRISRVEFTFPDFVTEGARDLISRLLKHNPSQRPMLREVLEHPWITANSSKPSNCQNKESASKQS
Assay: HA-tagged truncated LIMK2 mutants expressed in MDA cells, isolated and analyzed for Aurora A binding
Description: LIMK2 contains two LIM domains (12-129), a PDZ domain (152-236), an S/P domain (240-328) and a kinase domain (331-601) (Scott and Olson (2007) J. Mol. Med. 85, 555-568). […] These mutants were transiently expressed in MDA cells, isolated and analyzed for Aurora A binding.
We next investigated whether association of LIM domains of LIMK2 is sufficient for Aurora A stabilization. […] After 30 h, cells were lysed, HA-tagged LIMK2 proteins were isolated and probed for Aurora A binding. […] After 30 h, cells were lysed, HA-tagged LIMK2 proteins were isolated and probed for Aurora A binding.

binding result: binds
B1: HA-tagged (1-145) LIMK2 (other, not shown: small tags and cut ends)
chain: MSALAGEDVWRCPGCGDHIAPSQIWYRTVNETWHGSCFRCSECQDSLTNWYYEKDGKLYCPKDYWGKFGEFCHGCSLLMTGPFMVAGEFKYHPECFACMSCKVIIEDGDAYALVQHATLYCGKCHNEVVLAPMFERLSTESVQEQ
notes: also called truncated LIMK2 mutant containing two LIM domains
